# Assay results reported in publication PMC7822592, “The half-life of the bone-derived hormone osteocalcin is regulated through O-glycosylation in mice, but not in humans” (eLife, 2020).
# No end group written: not given here.
# Experiments:
# [1] = Ex vivo half-life of mouse OCN in plasma; type: in vitro ADME; conditions: 100 ng/ml
# Procedure: The mouse OCN ex vivo half-life assays were performed with fresh plasma (lithium heparin) collected from four independent Bglap-/- mice. Glycosylated OCN produced in HEK293 cells and non-glycosylated OCN, produced in bacteria as previously described ([Ferron et al., 2012]), were incubated at 100 ng/ml in plasma at 37°C and OCN level was measured at indicated time points using the total mouse OCN ELISA assay described previously ([Ferron et al., 2010b]). […] The detection antibody is a goat polyclonal antibody directed against the C-terminal region (amino acids 26 to 46) of mouse OCN (anti-CTERM OCN). This assay detects with the same sensitivity glycosylated and non-glycosylated mouse OCN at concentration of 50 ng/ml or less (Figure 3—figure supplement 2). Therefore, all samples were diluted to be in this range before being measured by the ELISA. Human OCN half-life assay was performed ex vivo using Bglap-/- mice plasma and human OCN at 60 ng/ml. Human OCN level was measured at different time point using the human ucOCN ELISA described above. At the experiment start point (T0), an aliquot of plasma was diluted in ELISA assay buffer and kept on ice for OCN measurements. In some experiments, plasma was heat-inactivated for 30 min at 56°C, or treated with EDTA (10 mM, Wisent), phenylmethylsulfonyl fluoride (PMSF, 10 mM, Sigma), pepstatin A (Pep A, 10 μM, Sigma) which inhibits aspartic proteases (pepsin, cathepsin D, renin, chymosin), RVKR (Dec-RVKR-CMK, 50 μM; Tocris) or talabostat (10 mM; Tocris). Results are calculated in percentage relative to the initial concentration of non-glycosylated and glycosylated OCN respectively.
# INS-1 832/3 cells = assay: Ins1 gene expression in INS-1 832/3 cells treated with ucOCN; type: cell-based, rat; conditions: 8 hr; for Ins1 gene expression (Fold change relative to vehicle): 0.3 ng/mL, qPCR
# Procedure: The INS-1 832/3 rat insulinoma cell line (Millipore-Sigma) was cultured in RPMI-1640 with 11.1 mM D-glucose, supplemented with 2 mM L-glutamine, 1 mM sodium pyruvate, 10 mM HEPES, 0.05 mM β-mercaptoethanol and 10% FBS ([Hohmeier et al., 2000]). On day 1, cells were plated at 3 × 10^5 cells per well in 12-well plates and on day 5, cells were washed with PBS and incubated with culture media containing 5 mM D-glucose. Twenty-four hours later, cells were washed with PBS and incubated for 4 hr in culture media containing 1% FBS, 5 mM D-glucose and 0.1% BSA. OCN was added for 8 hr before supernatants and cells were harvested. ucOCN and O-gly ucOCN concentration were measured in supernatants by ELISA and cells were lyzed and RNA extracted as described in the material and methods section. Gene expression was analyzed using rat specific primers for Ins1 and Gapdh.
substance,measurement,setting,value
"ucOCN: Non-glycosylated uncarboxylated mouse osteocalcin produced in bacteria (YLGASVPSPDPLEPTREQCELNPACDELSDQYGLKTAYKRIYGITI; ends and bridges not checked; cysteine pairing not given here; UniProt P86546 50-95, looked up)",stability in saline solution containing 3.5% BSA,"[1]; 37°C, 2 hr, ELISA",stable
same,% OCN from initial,"[1]; Bglap-/- mouse plasma, 37°C, 0 min, ELISA, replicate 1",100.0%
same,% OCN from initial,"[1]; Bglap-/- mouse plasma, 37°C, 0 min, ELISA, replicate 2",100.0%
same,% OCN from initial,"[1]; Bglap-/- mouse plasma, 37°C, 0 min, ELISA, replicate 3",100.0%
same,% OCN from initial,"[1]; Bglap-/- mouse plasma, 37°C, 15 min, ELISA, replicate 1",87.1%
same,% OCN from initial,"[1]; Bglap-/- mouse plasma, 37°C, 15 min, ELISA, replicate 2",96.1%
same,% OCN from initial,"[1]; Bglap-/- mouse plasma, 37°C, 15 min, ELISA, replicate 3",88.6%
same,% OCN from initial,"[1]; Bglap-/- mouse plasma, 37°C, 30 min, ELISA, replicate 1",81.2%
same,% OCN from initial,"[1]; Bglap-/- mouse plasma, 37°C, 30 min, ELISA, replicate 2",85.3%
same,% OCN from initial,"[1]; Bglap-/- mouse plasma, 37°C, 30 min, ELISA, replicate 3",89.8%
same,% OCN from initial,"[1]; Bglap-/- mouse plasma, 37°C, 60 min, ELISA, replicate 1",73.3%
same,% OCN from initial,"[1]; Bglap-/- mouse plasma, 37°C, 60 min, ELISA, replicate 2",71.4%
same,% OCN from initial,"[1]; Bglap-/- mouse plasma, 37°C, 60 min, ELISA, replicate 3",69.0%
same,% OCN from initial,"[1]; Bglap-/- mouse plasma, 37°C, 90 min, ELISA, replicate 1",67.3%
same,% OCN from initial,"[1]; Bglap-/- mouse plasma, 37°C, 90 min, ELISA, replicate 2",65.7%
same,% OCN from initial,"[1]; Bglap-/- mouse plasma, 37°C, 90 min, ELISA, replicate 3",66.9%
same,% OCN from initial,"[1]; Bglap-/- mouse plasma, 37°C, 120 min, ELISA, replicate 1",60.1%
same,% OCN from initial,"[1]; Bglap-/- mouse plasma, 37°C, 120 min, ELISA, replicate 2",56.6%
same,% OCN from initial,"[1]; Bglap-/- mouse plasma, 37°C, 120 min, ELISA, replicate 3",51.9%
same,% OCN from initial,"[1]; Bglap-/- mouse plasma, 37°C, 180 min, ELISA, replicate 1",51.9%
same,% OCN from initial,"[1]; Bglap-/- mouse plasma, 37°C, 180 min, ELISA, replicate 2",46.9%
same,% OCN from initial,"[1]; Bglap-/- mouse plasma, 37°C, 180 min, ELISA, replicate 3",43.8%
same,% OCN from initial,"[1]; Bglap-/- mouse plasma, 37°C, 300 min, ELISA, replicate 1",36.9%
same,% OCN from initial,"[1]; Bglap-/- mouse plasma, 37°C, 300 min, ELISA, replicate 2",36.3%
same,% OCN from initial,"[1]; Bglap-/- mouse plasma, 37°C, 300 min, ELISA, replicate 3",30.7%
same,% OCN from initial,"[1]; Figure 3D, Bglap-/- mouse plasma, 2hrs, 4°C, Not HI, ELISA, replicate 1",108.8%
same,% OCN from initial,"[1]; Figure 3D, Bglap-/- mouse plasma, 2hrs, 4°C, Not HI, ELISA, replicate 2",99.4%
same,% OCN from initial,"[1]; Figure 3D, Bglap-/- mouse plasma, 2hrs, 4°C, Not HI, ELISA, replicate 3",94.3%
same,% OCN from initial,"[1]; Figure 3D, Bglap-/- mouse plasma, 2hrs, 37°C, HI (heat-inactivated plasma), ELISA, replicate 1",108.8%
same,% OCN from initial,"[1]; Figure 3D, Bglap-/- mouse plasma, 2hrs, 37°C, HI (heat-inactivated plasma), ELISA, replicate 2",108.9%
same,% OCN from initial,"[1]; Figure 3D, Bglap-/- mouse plasma, 2hrs, 37°C, HI (heat-inactivated plasma), ELISA, replicate 3",82.4%
same,% OCN from initial,"[1]; Figure 3D, Bglap-/- mouse plasma, 2hrs, 37°C, Not HI, ELISA, replicate 1",34.6%
same,% OCN from initial,"[1]; Figure 3D, Bglap-/- mouse plasma, 2hrs, 37°C, Not HI, ELISA, replicate 2",23.3%
same,% OCN from initial,"[1]; Figure 3D, Bglap-/- mouse plasma, 2hrs, 37°C, Not HI, ELISA, replicate 3",37.9%
same,% OCN from initial,"[1]; Figure 3D, Bglap-/- mouse plasma, T0, ELISA, replicate 1",101.3%
same,% OCN from initial,"[1]; Figure 3D, Bglap-/- mouse plasma, T0, ELISA, replicate 2",100.0%
same,% OCN from initial,"[1]; Figure 3D, Bglap-/- mouse plasma, T0, ELISA, replicate 3",98.7%
same,% OCN from initial,"[1]; Figure 3 supplement 3A, 3.5% BSA in saline solution, 2 hours at 37 °C, replicate 1",108.8%
same,% OCN from initial,"[1]; Figure 3 supplement 3A, 3.5% BSA in saline solution, 2 hours at 37 °C, replicate 2",110.0%
same,% OCN from initial,"[1]; Figure 3 supplement 3A, 3.5% BSA in saline solution, 2 hours at 37 °C, replicate 3",106.2%
same,% OCN from initial,"[1]; Figure 3 supplement 3A, Bglap-/- mouse plasma, 4°C, T=2hours, replicate 1",94.9%
same,% OCN from initial,"[1]; Figure 3 supplement 3A, Bglap-/- mouse plasma, 4°C, T=2hours, replicate 2",99.7%
same,% OCN from initial,"[1]; Figure 3 supplement 3A, Bglap-/- mouse plasma, 4°C, T=2hours, replicate 3",100.1%
same,% OCN from initial,"[1]; Figure 3 supplement 3A, Bglap-/- mouse plasma, 2 hours at 37 °C, Pepstatin A (10uM), replicate 1",52.2%
same,% OCN from initial,"[1]; Figure 3 supplement 3A, Bglap-/- mouse plasma, 2 hours at 37 °C, Pepstatin A (10uM), replicate 2",57.4%
same,% OCN from initial,"[1]; Figure 3 supplement 3A, Bglap-/- mouse plasma, 2 hours at 37 °C, Pepstatin A (10uM), replicate 3",69.1%
same,% OCN from initial,"[1]; Figure 3 supplement 3A, Bglap-/- mouse plasma, 2 hours at 37 °C, RVKR (50uM), replicate 1",56.2%
same,% OCN from initial,"[1]; Figure 3 supplement 3A, Bglap-/- mouse plasma, 2 hours at 37 °C, RVKR (50uM), replicate 2",66.8%
same,% OCN from initial,"[1]; Figure 3 supplement 3A, Bglap-/- mouse plasma, 2 hours at 37 °C, RVKR (50uM), replicate 3",78.0%
same,% OCN from initial,"[1]; Figure 3 supplement 3A, Bglap-/- mouse plasma, 2 hours at 37 °C, vehicle (V), replicate 1",48.4%
same,% OCN from initial,"[1]; Figure 3 supplement 3A, Bglap-/- mouse plasma, 2 hours at 37 °C, vehicle (V), replicate 2",65.6%
same,% OCN from initial,"[1]; Figure 3 supplement 3A, Bglap-/- mouse plasma, 2 hours at 37 °C, vehicle (V), replicate 3",67.2%
same,% OCN from initial,"[1]; Figure 3 supplement 3A, Bglap-/- mouse plasma, T0, replicate 1",107.3%
same,% OCN from initial,"[1]; Figure 3 supplement 3A, Bglap-/- mouse plasma, T0, replicate 2",96.2%
same,% OCN from initial,"[1]; Figure 3 supplement 3A, Bglap-/- mouse plasma, T0, replicate 3",96.6%
same,% OCN from initial,"[1]; Figure 3 supplement 3B, Bglap-/- mouse plasma, 4°C, T=2hours, replicate 1",108.8%
same,% OCN from initial,"[1]; Figure 3 supplement 3B, Bglap-/- mouse plasma, 4°C, T=2hours, replicate 2",99.4%
same,% OCN from initial,"[1]; Figure 3 supplement 3B, Bglap-/- mouse plasma, 4°C, T=2hours, replicate 3",94.3%
same,% OCN from initial,"[1]; Figure 3 supplement 3B, Bglap-/- mouse plasma, 2 hours at 37 °C, 10 mM EDTA, replicate 1",37.4%
same,% OCN from initial,"[1]; Figure 3 supplement 3B, Bglap-/- mouse plasma, 2 hours at 37 °C, 10 mM EDTA, replicate 2",24.3%
same,% OCN from initial,"[1]; Figure 3 supplement 3B, Bglap-/- mouse plasma, 2 hours at 37 °C, 10 mM EDTA, replicate 3",37.4%
same,% OCN from initial,"[1]; Figure 3 supplement 3B, Bglap-/- mouse plasma, 2 hours at 37 °C, vehicle (V), replicate 1",34.6%
same,% OCN from initial,"[1]; Figure 3 supplement 3B, Bglap-/- mouse plasma, 2 hours at 37 °C, vehicle (V), replicate 2",23.3%
same,% OCN from initial,"[1]; Figure 3 supplement 3B, Bglap-/- mouse plasma, 2 hours at 37 °C, vehicle (V), replicate 3",37.9%
same,% OCN from initial,"[1]; Figure 3 supplement 3B, Bglap-/- mouse plasma, T0, replicate 1",101.3%
same,% OCN from initial,"[1]; Figure 3 supplement 3B, Bglap-/- mouse plasma, T0, replicate 2",100.0%
same,% OCN from initial,"[1]; Figure 3 supplement 3B, Bglap-/- mouse plasma, T0, replicate 3",98.7%
same,half-life in plasma ex vivo,"[1]; fresh Bglap-/- mouse plasma (lithium heparin), 37°C, total mouse OCN ELISA, n = 4 plasma",~ 120 min
same,Ins1 gene expression (Fold change relative to vehicle),INS-1 832/3 cells; replicate 1,0.663 Fold change
same,Ins1 gene expression (Fold change relative to vehicle),INS-1 832/3 cells; replicate 2,1.9 Fold change
same,Ins1 gene expression (Fold change relative to vehicle),INS-1 832/3 cells; replicate 3,0.6 Fold change
same,Ins1 gene expression (Fold change relative to vehicle),INS-1 832/3 cells; replicate 4,1.4 Fold change
same,Ins1 gene expression (Fold change relative to vehicle),INS-1 832/3 cells; replicate 5,0.337 Fold change
same,Ins1 gene expression (Fold change relative to vehicle),INS-1 832/3 cells; replicate 6,0.4 Fold change
same,Ins1 gene expression (Fold change relative to vehicle),INS-1 832/3 cells; replicate 7,2.7 Fold change
same,Ins1 gene expression (Fold change relative to vehicle),INS-1 832/3 cells; replicate 8,3.6 Fold change
same,Ins1 gene expression (Fold change relative to vehicle),INS-1 832/3 cells; replicate 9,2.4 Fold change
same,Ins1 gene expression (Fold change relative to vehicle),INS-1 832/3 cells; replicate 10,1.3 Fold change
same,Ins1 expression increase,"INS-1 832/3 cells; 0.3 ng/ml, quantitative PCR",1.5 fold
